Ends that are not written are not given here. Me3 = trimethyllysine (Kme3)

Details in all cases: both partners purified
In one experiment the target is T1, JMJD2A tudor domains.
T1 construct: JMJD2A (KDM4A), tudor domains; source: E. coli Rosetta BL21 DE3 pLysS, purified (Ni-NTA, TEV protease, Superdex 75)
T1 sequence (O75164 whole entry, species assumed, looked up): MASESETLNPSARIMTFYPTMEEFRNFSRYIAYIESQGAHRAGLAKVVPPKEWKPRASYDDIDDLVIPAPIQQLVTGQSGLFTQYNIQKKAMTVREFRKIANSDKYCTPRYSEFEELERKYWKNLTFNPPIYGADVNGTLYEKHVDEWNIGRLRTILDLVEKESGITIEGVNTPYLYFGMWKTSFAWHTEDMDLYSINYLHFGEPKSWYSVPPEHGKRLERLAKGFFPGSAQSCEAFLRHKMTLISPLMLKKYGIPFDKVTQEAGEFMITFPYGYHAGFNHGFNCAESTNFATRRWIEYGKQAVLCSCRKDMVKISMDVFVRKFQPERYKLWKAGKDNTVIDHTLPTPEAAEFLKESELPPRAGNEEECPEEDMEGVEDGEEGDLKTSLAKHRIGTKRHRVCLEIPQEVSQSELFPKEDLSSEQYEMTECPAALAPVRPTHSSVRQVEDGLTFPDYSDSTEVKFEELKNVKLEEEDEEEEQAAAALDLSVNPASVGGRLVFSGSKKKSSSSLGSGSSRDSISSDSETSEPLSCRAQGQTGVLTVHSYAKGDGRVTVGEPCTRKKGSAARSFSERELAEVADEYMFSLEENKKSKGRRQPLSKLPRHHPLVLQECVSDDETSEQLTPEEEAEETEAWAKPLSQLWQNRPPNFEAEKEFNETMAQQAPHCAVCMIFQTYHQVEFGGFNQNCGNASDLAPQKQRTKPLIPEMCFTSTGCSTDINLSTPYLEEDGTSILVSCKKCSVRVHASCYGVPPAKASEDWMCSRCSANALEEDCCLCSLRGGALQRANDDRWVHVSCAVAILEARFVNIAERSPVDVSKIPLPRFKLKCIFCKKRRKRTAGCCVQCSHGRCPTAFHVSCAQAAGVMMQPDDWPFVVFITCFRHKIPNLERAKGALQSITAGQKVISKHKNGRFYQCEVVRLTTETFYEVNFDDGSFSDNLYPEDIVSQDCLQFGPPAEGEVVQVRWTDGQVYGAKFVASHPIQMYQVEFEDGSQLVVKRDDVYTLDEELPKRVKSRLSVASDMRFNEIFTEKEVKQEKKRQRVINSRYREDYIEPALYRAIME
The experiment is described as follows: ITC; 350–600 μM H3K4me3 or H3C4me3 peptide titrated to 25–40 μM protein (JMJD2A–H3C4me3: 3 mM peptide to 200 μM JMJD2A); 19 injections; Microcal Auto-iTC200; one set of sites model; 5–7 repeats.

The target in experiment [1] is T2, TAF3 PHD domain (for ITC).
T2 chain: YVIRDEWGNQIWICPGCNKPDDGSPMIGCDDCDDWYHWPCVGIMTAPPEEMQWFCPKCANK
The experiment is described as above.

The next experiment concerns the target T3, BPTF PHD zinc finger.
T3 chain: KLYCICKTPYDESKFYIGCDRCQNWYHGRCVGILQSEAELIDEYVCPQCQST
Described as above.

Experiment [2] addresses T4, JARID1A PHD3 domain (for ITC).
T4 construct: JARID1A (KDM5A), PHD3 domain; cleavage of the tag is told only for JMJD2A, SGF29 and TAF3; also called PHD zinc finger of JARID1A; source: E. coli Rosetta BL21 DE3 pLysS, purified (Ni-NTA or glutathione sepharose beads, Superdex 75)
The experiment is described as above.

In experiment [3] the target is T5, SGF29 tandem tudor domain (for ITC).
T5 construct: SGF29, tandem tudor domain; the crystallisation construct is residues 115-293 of human SGF29; source: E. coli Rosetta BL21 DE3 pLysS, purified (Ni-NTA, TEV protease, Superdex 75)
The description is as above.

For experiment [4], the target named is T2, TAF3 PHD domain (for ITC). The experiment is described as follows: ITC; H3G4 (5 mM) titrated to JARID1A (330 μM), H3G4 (3 mM) titrated to TAF3 (200 μM); 19 injections; Microcal Auto-iTC200; one set of sites model. For orientation: ITC needs no label: the signal is the heat of the interaction.

T5 sequence (Q96ES7 whole entry, the tested form may be a part): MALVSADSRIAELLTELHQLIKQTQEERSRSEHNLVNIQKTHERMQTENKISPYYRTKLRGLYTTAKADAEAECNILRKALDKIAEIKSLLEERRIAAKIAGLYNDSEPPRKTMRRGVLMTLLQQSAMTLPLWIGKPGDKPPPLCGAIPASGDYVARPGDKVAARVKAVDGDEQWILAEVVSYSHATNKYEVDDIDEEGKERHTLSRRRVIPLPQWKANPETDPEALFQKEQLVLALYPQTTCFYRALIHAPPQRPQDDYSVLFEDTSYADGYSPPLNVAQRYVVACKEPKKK

B1: 10-mer H3C4me3 histone peptide (peptide)
chain: ARTXQTARKS
modifications: Cme3 (neutral carba analogue of trimethyllysine, tert-butyl in place of trimethylammonium) at position 4; carboxylic acid at the C terminus
The Kd is a measure of binding affinity in units of concentration. A low value points to higher affinity. Regarding B1, the dissociation constant (Kd) came to 16000 nM in the experiment with JMJD2A tudor domains; 790 nM in experiment [1]; 760 nM with BPTF PHD zinc finger; 340 nM in experiment [2]; 1400 nM in experiment [3]. The dH was -8.1 ± 0.1 kcal/mol with JMJD2A tudor domains; -5.2 ± 0.1 kcal/mol in experiment [1]; -10 ± 0.2 kcal/mol in the experiment with BPTF PHD zinc finger; -7.4 ± 0.1 kcal/mol in experiment [2]; -7.9 ± 0.1 kcal/mol in experiment [3].

B2: 10-mer H3K4me3 histone peptide (peptide)
peptide: ARTK(Me3)QTARKS-OH
notes: histone H3, residues 1-10, with Kme3 at the fourth position; Peptides appear as TFA salts; also called H3(1-10)K4me3; source: synthetic peptide (solid-phase synthesis, Fmoc chemistry, preparative HPLC)
In experiment [1], B2 came in with a Kd of 24 nM and a dH of -10.9 ± 0.1 kcal/mol. In the experiment with BPTF PHD zinc finger, this molecule registered a Kd of 490 nM and a dH of -13.1 ± 0.1 kcal/mol.

B3: 10-mer H3G4 histone peptide (peptide)
peptide: ARTGQTARKS-OH
notes: source: synthetic peptide (solid-phase synthesis, Fmoc chemistry, preparative HPLC)
In the case of B3, in experiment [4], the equilibrium dissociation constant (Kd) stood at 36000 nM and the dH was -2.5 kcal/mol.
